± gives the uncertainty stated by the source.
B1: Tesmin, residues 368 to 403; numbered along this chain, Q9Y4I5 (parent)
chain: KGCNCRRSGCLKNYCECYEAQIMCSSICKCIGCKNY

Variants of: B1
Experiment: abundance fitness (aPCA) (normalised: wild type 0, dead -1); higher = more abundant; growth selection in yeast, the domain comes from the species named
Settings: Homo sapiens

| Variant | abundance fitness |
| --- | --- |
| KGCNCRRSGCLKNYCECYEAQIMCSSICKCEGCKNY | 0.311 ± 0.09 |
| KGCNCRRSGCLKNYCECYEAQIMCSSICKCMGCKNY | 0.081 ± 0.08 |
| KGCNCRRSGCLKNYCECYEAQIMCSSICKCQGCKNY | 0.114 ± 0.1 |
| KGCNCRRSGCLKNYCECYEAQIMCSSICKCGGCKNY | 0.15 ± 0.074 |
| KGCNCRRSGCLKNYCECYEAQIMCSSICKCTGCKNY | 0.211 ± 0.12 |
| KGCNCRRSGCLKNYCECYEAQIMCSSICKCKGCKNY | -0.108 ± 0.15 |
| KGCNCRRSGCLKNYCECYEAQIMCSSICKCPGCKNY | 0.047 ± 0.11 |
| KGCNCRRSGCLKRYCECYEAQIMCSSICKCIGCKNY | -0.218 ± 0.068 |
| KGCNCRRSGCLKMYCECYEAQIMCSSICKCIGCKNY | -0.556 ± 0.13 |
| KGCNCRRSSCLKNYCECYEAQIMCSSICKCIGCKNY | -0.795 ± 0.08 |
| KGCNCRRSVCLKNYCECYEAQIMCSSICKCIGCKNY | -0.334 ± 0.077 |
| KGCNTRRSGCLKNYCECYEAQIMCSSICKCIGCKNY | -0.431 ± 0.094 |
| KGCNGRRSGCLKNYCECYEAQIMCSSICKCIGCKNY | -0.65 ± 0.069 |
| KGCNVRRSGCLKNYCECYEAQIMCSSICKCIGCKNY | -1.24 ± 0.083 |
| KGCNHRRSGCLKNYCECYEAQIMCSSICKCIGCKNY | 0.066 ± 0.2 |
| KGCNLRRSGCLKNYCECYEAQIMCSSICKCIGCKNY | -0.455 ± 0.1 |
| KGCNQRRSGCLKNYCECYEAQIMCSSICKCIGCKNY | -0.346 ± 0.095 |
| KGCNCRRSGCLKNYCECYEAQIMCSSICKCIGCCNY | 0.064 ± 0.14 |
| KGCNCRRSGCLKNYCECYEAQIMCSSICKCIGCGNY | 0.266 ± 0.068 |
| KGCNCRRSGCLKNYCECYEAQIMCSSICKCIGCPNY | 0.161 ± 0.21 |
| KGCNCRRSGCLKNYCECYEAQIMCSSICKCIGCNNY | 0.06 ± 0.13 |
| KGCNCRRSGCLKNYCECYEAQIMCSSICKCIGCENY | 0.182 ± 0.14 |
| KGCNCRRSGCLKNYCECYEAQIMCSSVCKCIGCKNY | 0.112 ± 0.085 |

| Variant | abundance fitness |
| --- | --- |
| KGCNCRRSGCLKNYCECYEAQIMCSSCCKCIGCKNY | -1.72 ± 0.24 |
| KGCNCRRSGCLKNYCECYEAQIMCSSQCKCIGCKNY | 0.176 ± 0.089 |
| KGCNCRRSGCLKNYCFCYEAQIMCSSICKCIGCKNY | -0.453 ± 0.38 |
| KGCNCRRSGCLKNYCHCYEAQIMCSSICKCIGCKNY | -0.418 ± 0.43 |
| KGCNCRRSGCLKNYCDCYEAQIMCSSICKCIGCKNY | -0.522 ± 0.28 |
| KGCNCRRSGCLKNYCWCYEAQIMCSSICKCIGCKNY | -0.466 ± 0.11 |
| KGCNCRRSGCLKNYCNCYEAQIMCSSICKCIGCKNY | -0.763 ± 0.1 |
| KGCNCRRSGCLKNYCECYEAQIMCMSICKCIGCKNY | -0.324 ± 0.12 |
| KGCNCRRSGCLKNYCECYEAQIMCTSICKCIGCKNY | -0.168 ± 0.11 |
| KGCNCRRSGCLKNYCECYEAQIMCDSICKCIGCKNY | -0.334 ± 0.17 |
| KGCNCRRSGCLKNYCECYEAQIMCLSICKCIGCKNY | -0.415 ± 0.081 |
| KGCNCRRSGCLANYCECYEAQIMCSSICKCIGCKNY | -0.05 ± 0.085 |
| KGCNCRRSGCLWNYCECYEAQIMCSSICKCIGCKNY | -0.643 ± 0.1 |
| KGCNCRRSGCLRNYCECYEAQIMCSSICKCIGCKNY | -0.359 ± 0.072 |
| KGCNCRRSGCLNNYCECYEAQIMCSSICKCIGCKNY | -0.46 ± 0.24 |
| KGCNCRRSGCLKNYCECYEAQIMCSSICKCIGCKDY | 0.18 ± 0.12 |
| KGCNCRRSGCLKNYCECYEAQIMCSSICKCIGCKAY | 0.141 ± 0.079 |
| KGCNCRRSGCLKNYCECYEAQIMCSSICKCIGCKQY | 0.114 ± 0.11 |
| KGCNCRRSGCLKNYCECYEMQIMCSSICKCIGCKNY | -0.317 ± 0.1 |
| KGCNCRRSGCLKNYCECYEKQIMCSSICKCIGCKNY | -0.337 ± 0.22 |
| KGCNCRRSGCLKNYCECYELQIMCSSICKCIGCKNY | -0.199 ± 0.083 |
| KGCNCRRSGCLKNYCECYEEQIMCSSICKCIGCKNY | -0.082 ± 0.11 |
| KGCNCRRSGCLKNYCECYETQIMCSSICKCIGCKNY | -0.196 ± 0.14 |

| Variant | abundance fitness |
| --- | --- |
| KGCNCRRSGCLKNYCECYESQIMCSSICKCIGCKNY | -0.049 ± 0.096 |
| KGCNCRRSGCLKNICECYEAQIMCSSICKCIGCKNY | -0.09 ± 0.1 |
| KGCNCRRSGCLKNRCECYEAQIMCSSICKCIGCKNY | 0.01 ± 0.075 |
| KGCNCRRSGCLKNDCECYEAQIMCSSICKCIGCKNY | 0.171 ± 0.11 |
| KGCNCRRSGCLKNPCECYEAQIMCSSICKCIGCKNY | 0.145 ± 0.09 |
| KGCNCRRSGCLKNACECYEAQIMCSSICKCIGCKNY | -0.253 ± 0.077 |
| KGCNCRRSGCLKNYCECYEAQVMCSSICKCIGCKNY | 0.048 ± 0.093 |
| KGCNCRRSGCLKNYCECYEAQTMCSSICKCIGCKNY | 0.109 ± 0.13 |
| KGCNCRRSGCLKNYCECYEAQIMCSSICGCIGCKNY | 0.24 ± 0.066 |
| KGCNCRRSGCLKNYCECYEAQIMCSSICNCIGCKNY | 0.054 ± 0.22 |
| KGCNCRRSGCLKNYCECYEAQIMCSSICRCIGCKNY | 0.034 ± 0.069 |
| KGCNCRRSGCLKNYCECYQAQIMCSSICKCIGCKNY | -0.131 ± 0.1 |
| KGCNCRRSGCLKNYCECYAAQIMCSSICKCIGCKNY | -0.107 ± 0.086 |
| KGCNCRRSGCLKNYCECYDAQIMCSSICKCIGCKNY | -0.243 ± 0.12 |
| KGCNCRRSGCLKNYCECYTAQIMCSSICKCIGCKNY | -0.308 ± 0.1 |
| KGCNCRRSGCLKNYCECYMAQIMCSSICKCIGCKNY | -0.18 ± 0.15 |
| KGCNCRRSGCLKNYCECYSAQIMCSSICKCIGCKNY | -0.226 ± 0.093 |
| KGCNCRRSGCLKNYCECYEAQIMCSSICKKIGCKNY | -0.249 ± 0.12 |
| KGCNCRRSGCLKNYCECYEAQIMCSSICKMIGCKNY | -1.15 ± 0.25 |
| KGCNCRRSGCLKNYCECYEAQIMCSSICKCIGDKNY | -0.064 ± 0.094 |
| KGCNCRRSGCLKNYCECYEAQIMCSSICKCIGAKNY | -0.011 ± 0.076 |
| KGCNCRRSGCLKNYCECYEAQIMCSSICKCIGKKNY | -0.123 ± 0.093 |
| KGCNCRRSGCLKNYCECYEAQIMCSSICKCIGLKNY | -0.232 ± 0.083 |
